± gives the standard error.
B1: library; numbered along this chain (parent)
chain: MATDAALRRLLRLHRTEIAVAVDSAFPLLHALADHDVVPEDKFQETLHLKEKEGCPQAFHALLSWLLTQDSTAILDFWRVLFKDYNLERYGRLQPILDSFPKDVDLSQPRKGRKPPAVPKALVPPPRLPTKRKASEEARAAAPAALTPRGTASPGSQLKAKPPKKPESSAEQQRLPLGNGIQTMSASVQRAVAMSSGDVPGARGAVEGILIQQVFESGGSKKCIQVGGEFYTPSKFEDSGSGKNKARSSSGPKPLVRAKGAQGAAPGGGEARLGQQGSVPAPLALPSDPQLHQKNEDECAVCRDGGELICCDGCPRAFHLACLSPPLREIPSGTWRCSSCLQATVQEVQPRAEEPRPQEPPVETPLPPGLRSAGEEVRGPPGEPLAGMDTTLVYKHLPAPPSAAPLPGLDSSALHPLLCVGPEGQQNLAPGARCGVCGDGTDVLRCTHCAAAFHWRCHFPAGTSRPGTGLRCRSCSGDVTPAPVEGVLAPSPARLAPGPAKDDTASHEPALHRDDLESLLSEHTFDGILQWAIQSMARPAAPFPS

Variants of: B1
Experiment: AIRE transcriptional activation functional score (insulin promoter-GFP; nonsense median 0, synonymous median 1) (normalised score); higher = higher AIRE activity (more reporter activation)
Conditions: with insulin promoter-GFP reporter in HEK293
Procedure: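 Deep mutational scan of full-length human AIRE (codon-optimized cDNA, DT-POPCode NNN libraries over three regions) integrated at a Bxb1 landing pad in HEK293 cells carrying an insulin core promoter-GFP reporter at a Flp-In site. Cells were sorted for the top 10% GFP about 14 days after transfection. Variant frequency log-ratios (select vs non-select, TileSeq) were rescaled so that the nonsense median is 0 and the synonymous median is 1, then averaged over biological replicates.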

Variant | AIRE transcriptional activation functional score
E136S | 0.919 ± 0.38
E136R | -0.203 ± 0.43
E136N | 0.529 ± 0.18
E136Y | 1.32 ± 0.34
E136A | 1.16 ± 0.46
E136L | 0.669 ± 0.26
E136D | 0.541 ± 0.62
E136P | 1.91 ± 0.84
E136K | -0.163 ± 0.49
E136M | 0.441 ± 0.041
E136V | 0.704 ± 0.44
E136T | 0.767 ± 0.32
E136F | 0.605 ± 0.16
S135I | 1.2 ± 0.12
S135K | 1.43 ± 0.35
S135H | 1.48 ± 0.27
S135N | 0.753 ± 0.095
S135M | -0.155 ± 0.32
S135A | 2.31 ± 0.099
S135C | 0.747 ± 0.12
S135T | 2.07 ± 0.43

Variant | AIRE transcriptional activation functional score
S135F | 1.13 ± 0.4
S135Y | 0.884 ± 0.32
S135E | 1.38 ± 0.099
S135G | -0.37 ± 0.43
S135L | 1.04 ± 0.4
S135V | 0.924 ± 0.21
S135R | 0.761 ± 0.25
S135W | 1.79 ± 0.1
S135P | 0.181 ± 0.27
S135Q | 1.13 ± 0.11
S135D | 1.56 ± 0.28
R149T | 0.559 ± 0.36
R149Y | 0.303 ± 0.2
R149H | 1.12 ± 0.097
R149W | 1.11 ± 0.26
R149S | 1.26 ± 0.3
R149F | 0.857 ± 0.42
R149M | 0.41 ± 0.38
R149G | 0.663 ± 0.62
R149A | 1.19 ± 0.18
R149V | 0.621 ± 0.44

Variant | AIRE transcriptional activation functional score
R149K | 0.675 ± 0.64
R149L | 1.22 ± 0.58
R149P | 0.874 ± 0.47
R149N | 0.726 ± 0.25
R149C | 0.794 ± 0.24
R149I | 0.113 ± 0.67
R149D | 1.12 ± 0.18
R149E | 1.02 ± 0.19
R149Q | 1.71 ± 0.2
K133L | -0.0606 ± 0.37
K133W | -0.155 ± 0.076
K133H | 0.287 ± 0.57
K133S | 0.436 ± 0.32
K133A | -0.0211 ± 0.57
K133E | 0.0731 ± 0.23
K133N | -0.0115 ± 0.23
K133T | 0.351 ± 0.38
K133M | -0.0607 ± 0.074
K133D | 0.12 ± 0.12
K133Y | -0.0322 ± 0.21
K133G | 0.153 ± 0.19

Variant | AIRE transcriptional activation functional score
K133P | 0.469 ± 0.58
K133V | -0.175 ± 0.33
K133R | 1.43 ± 0.42
K133F | -0.0481 ± 0.26
K133I | -0.178 ± 0.14
K133Q | -0.167 ± 0.29
K133C | 0.0795 ± 0.2
G150L | 1.3 ± 0.56
G150E | 0.763 ± 1.3
G150C | 1.38 ± 0.11
G150A | -0.308 ± 0.47
G150D | -0.34 ± 0.4
G150I | 1.08 ± 0.33
G150F | 1.34 ± 0.12
G150H | 1.19 ± 0.08
G150K | 1.53 ± 0.12
G150M | 0.246 ± 0.27
A134W | 0.124 ± 0.67
A134G | -0.0179 ± 0.3
A134T | -0.16 ± 0.69
A134Y | 0.952 ± 0.67

From the supplement of paper PMC12667976
